Test results as given in article PMC4116150.

Columns and labels:
Assay in all cases: purified protein
[1] = test system: CC(C)(COP(=O)(O)OP(=O)(O)OC[C@H]1O[C@@H](n2cnc3c(N)ncnc32)[C@H](O)[C@@H]1OP(=O)(O)O)[C@@H](O)C(=O)NCCC(=O)NCCSC(=O)c1ccccc1; conditions: 50 mM K+HEPES pH 7.5, 1 mM DTNB, 25 °C
[2] = test system: CC(C)(COP(=O)(O)OP(=O)(O)OC[C@H]1O[C@@H](n2cnc3c(N)ncnc32)[C@H](O)[C@@H]1OP(=O)(O)O)[C@@H](O)C(=O)NCCC(=O)NCCSC(=O)c1cc(O)c2ccccc2c1O; conditions: 50 mM K+HEPES pH 7.5, 1 mM DTNB, 25 °C
[3] = test system: CCCCCCCCCCCC(=O)SCCNC(=O)CCNC(=O)[C@H](O)C(C)(C)COP(=O)(O)OP(=O)(O)OC[C@H]1O[C@@H](n2cnc3c(N)ncnc32)[C@H](O)[C@@H]1OP(=O)(O)O; conditions: 50 mM K+HEPES pH 7.5, 1 mM DTNB, 25 °C
[4] = substrate: CC(C)(COP(=O)(O)OP(=O)(O)OC[C@H]1O[C@@H](n2cnc3c(N)ncnc32)[C@H](O)[C@@H]1OP(=O)(O)O)[C@@H](O)C(=O)NCCC(=O)NCCSC(=O)c1cc(O)c2ccccc2c1O; conditions: 50 mM K+HEPES pH 7.5, 1 mM DTNB, 25 °C; remark: listed apart in the source
[5] = substrate: CC(C)(COP(=O)(O)OP(=O)(O)OC[C@H]1O[C@@H](n2cnc3c(N)ncnc32)[C@H](O)[C@@H]1OP(=O)(O)O)[C@@H](O)C(=O)NCCC(=O)NCCSC(=O)/C=C/c1ccc(O)cc1; conditions: 50 mM K+HEPES pH 7.5, 1 mM DTNB, 25 °C
[6] = substrate: CCCCCCCC/C=C\CCCCCCCC(=O)SCCNC(=O)CCNC(=O)[C@H](O)C(C)(C)COP(=O)(O)OP(=O)(O)OC[C@H]1O[C@@H](n2cnc3c(N)ncnc32)[C@H](O)[C@@H]1OP(=O)(O)O; conditions: 50 mM K+HEPES pH 7.5, 1 mM DTNB, 25 °C
[7] = substrate: CCCCCCCCCCCCCC(=O)SCCNC(=O)CCNC(=O)[C@H](O)C(C)(C)COP(=O)(O)OP(=O)(O)OC[C@H]1O[C@@H](n2cnc3c(N)ncnc32)[C@H](O)[C@@H]1OP(=O)(O)O; conditions: 50 mM K+HEPES pH 7.5, 1 mM DTNB, 25 °C
[8] = substrate: CC(C(=O)O)C(=O)SCCNC(=O)CCNC(=O)[C@H](O)C(C)(C)COP(=O)(O)OP(=O)(O)OC[C@H]1O[C@@H](n2cnc3c(N)ncnc32)[C@H](O)[C@@H]1OP(=O)(O)O; conditions: 50 mM K+HEPES pH 7.5, 1 mM DTNB, 25 °C
[9] = substrate: CCCCCC(=O)SCCNC(=O)CCNC(=O)[C@H](O)C(C)(C)COP(=O)(O)OP(=O)(O)OC[C@H]1O[C@@H](n2cnc3c(N)ncnc32)[C@H](O)[C@@H]1OP(=O)(O)O; conditions: 50 mM K+HEPES pH 7.5, 1 mM DTNB, 25 °C
[10] = substrate: CC(C)(COP(=O)(O)OP(=O)(O)OC[C@H]1O[C@@H](n2cnc3c(N)ncnc32)[C@H](O)[C@@H]1OP(=O)(O)O)[C@@H](O)C(=O)NCCC(=O)NCCSC(=O)c1ccc(O)cc1; conditions: 50 mM K+HEPES pH 7.5, 25 °C
[11] = substrate: CC(C)=CC(=O)SCCNC(=O)CCNC(=O)[C@H](O)C(C)(C)COP(=O)(O)OP(=O)(O)OC[C@H]1O[C@@H](n2cnc3c(N)ncnc32)[C@H](O)[C@@H]1OP(=O)(O)O; conditions: 50 mM K+HEPES pH 7.5, 1 mM DTNB, 25 °C
[12] = substrate: CCCCCCCCCCCCCCCC(=O)SCCNC(=O)CCNC(=O)[C@H](O)C(C)(C)COP(=O)(O)OP(=O)(O)OC[C@H]1O[C@@H](n2cnc3c(N)ncnc32)[C@H](O)[C@@H]1OP(=O)(O)O; conditions: 50 mM K+HEPES pH 7.5, 1 mM DTNB, 25 °C
[13] = substrate: CC(C)(COP(=O)(O)OP(=O)(O)OC[C@H]1O[C@@H](n2cnc3c(N)ncnc32)[C@H](O)[C@@H]1OP(=O)(O)O)[C@@H](O)C(=O)NCCC(=O)NCCSC(=O)c1ccccc1; conditions: 50 mM K+HEPES pH 7.5, 1 mM DTNB, 25 °C; remark: listed apart in the source
[14] = substrate: CCC(=O)SCCNC(=O)CCNC(=O)[C@H](O)C(C)(C)COP(=O)(O)OP(=O)(O)OC[C@H]1O[C@@H](n2cnc3c(N)ncnc32)[C@H](O)[C@@H]1OP(=O)(O)O; conditions: 50 mM K+HEPES pH 7.5, 1 mM DTNB, 25 °C
[15] = substrate: CCCCCCCCCCCC(=O)SCCNC(=O)CCNC(=O)[C@H](O)C(C)(C)COP(=O)(O)OP(=O)(O)OC[C@H]1O[C@@H](n2cnc3c(N)ncnc32)[C@H](O)[C@@H]1OP(=O)(O)O; conditions: 50 mM K+HEPES pH 7.5, 1 mM DTNB, 25 °C; remark: listed apart in the source
[16] = substrate: CCCCCCCCCCCC(=O)SCCNC(=O)CCNC(=O)[C@H](O)C(C)(C)COP(=O)(O)OP(=O)(O)OC[C@H]1O[C@@H](n2cnc3c(N)ncnc32)[C@H](O)[C@@H]1OP(=O)(O)O; format: biochemical, Escherichia coli; conditions: 50 mM K+HEPES pH 7.5, 1 mM DTNB, 25 °C

With YbdB (Escherichia coli K-12; M68V) the Km [1] was 24 ± 2 µM, the kcat [1] was 1.8 ± 0.1 s⁻¹ and the kcat/Km [1] was 75000 M⁻¹ s⁻¹. It also gave a Km [2] of 5.9 ± 0.6 µM, a kcat [2] of 0.16 ± 0.02 s⁻¹ and a kcat/Km [2] of 27000 M⁻¹ s⁻¹. For the same molecule, the Km [3] was 10.4 ± 0.3 µM, the kcat [3] was 0.046 ± 0.004 s⁻¹ and the kcat/Km [3] was 4500 M⁻¹ s⁻¹.

B1: YbdB (Escherichia coli K-12) (protein)
chain: MIWKRHLTLDELNATSDNTMVAHLGIVYTRLGDDVLEAEMPVDTRTHQPFGLLHGGASAALAETLGSMAGFMMTRDGQCVVGTELNATHHRPVSEGKVRGVCQPLHLGRQNQSWEIVVFDEQGRRCCTCRLGTAVLG
With B1 the Km [4] was 17 ± 1 µM, the kcat [4] was 0.0093 ± 0.0002 s⁻¹ and the kcat/Km [4] was 550 M⁻¹ s⁻¹. For the same molecule, the Km [5] was 10 ± 1 µM, the kcat [5] was 0.82 ± 0.02 s⁻¹ and the kcat/Km [5] was 82000 M⁻¹ s⁻¹. The Km [6] was 13 ± 2 µM, the kcat [6] was 0.03 ± 0.002 s⁻¹ and the kcat/Km [6] was 2300 M⁻¹ s⁻¹. For the same molecule, the Km [7] was 11 ± 1 µM, the kcat [7] was 0.078 ± 0.003 s⁻¹ and the kcat/Km [7] was 7100 M⁻¹ s⁻¹.

B2: YdiI (Escherichia coli K-12) (protein)
chain: MIWKRKITLEALNAMGEGNMVGFLDIRFEHIGDDTLEATMPVDSRTKQPFGLLHGGASVVLAESIGSVAGYLCTEGEQKVVGLEINANHVRSAREGRVRGVCKPLHLGSRHQVWQIEIFDEKGRLCCSSRLTTAIL
With B2 the Km [8] was 115 ± 7 µM, the kcat [8] was 0.67 ± 0.03 s⁻¹ and the kcat/Km [8] was 5800 M⁻¹ s⁻¹. For the same molecule, the Km [4] was 8 ± 1 µM, the kcat [4] was 1.6 ± 0.1 s⁻¹ and the kcat/Km [4] was 200000 M⁻¹ s⁻¹. It also gave a Km [9] of 21 ± 1 µM, a kcat [9] of 0.3 ± 0.01 s⁻¹ and a kcat/Km [9] of 14000 M⁻¹ s⁻¹. For the same molecule, the Km [10] was 9 ± 1 µM, the kcat [10] was 5.2 ± 0.2 s⁻¹ and the kcat/Km [10] was 580000 M⁻¹ s⁻¹. It also gave a Km [5] of 30 ± 2 µM, a kcat [5] of 8.4 ± 0.2 s⁻¹ and a kcat/Km [5] of 280000 M⁻¹ s⁻¹. For the same molecule, the Km [6] was 1.3 ± 0.1 µM, the kcat [6] was 0.12 ± 0.01 s⁻¹ and the kcat/Km [6] was 92000 M⁻¹ s⁻¹. It also gave a Km [11] of 69.4 ± 0.4 µM, a kcat [11] of 0.5 ± 0.02 s⁻¹ and a kcat/Km [11] of 7300 M⁻¹ s⁻¹. It also gave a Km [12] of 1.9 ± 0.1 µM, a kcat [12] of 0.58 ± 0.01 s⁻¹ and a kcat/Km [12] of 300000 M⁻¹ s⁻¹. For the same molecule, the Km [7] was 1.5 ± 0.2 µM, the kcat [7] was 0.62 ± 0.01 s⁻¹ and the kcat/Km [7] was 410000 M⁻¹ s⁻¹. It also gave a Km [13] of 25 ± 3 µM, a kcat [13] of 17.7 ± 0.7 s⁻¹ and a kcat/Km [13] of 710000 M⁻¹ s⁻¹. It also gave a Km [14] of 120 ± 10 µM, a kcat [14] of 0.21 ± 0.01 s⁻¹ and a kcat/Km [14] of 1700 M⁻¹ s⁻¹. It also gave a Km [15] of 2.2 ± 0.1 µM, a kcat [15] of 0.74 ± 0.01 s⁻¹ and a kcat/Km [15] of 330000 M⁻¹ s⁻¹.

B3: YdiI (Escherichia coli K-12; V68M) (protein)
chain: MIWKRKITLEALNAMGEGNMVGFLDIRFEHIGDDTLEATMPVDSRTKQPFGLLHGGASVVLAESIGSMAGYLCTEGEQKVVGLEINANHVRSAREGRVRGVCKPLHLGSRHQVWQIEIFDEKGRLCCSSRLTTAIL
For B3, the Km [16] was 28 ± 2 µM, the kcat [16] was 0.77 ± 0.03 s⁻¹ and the kcat/Km [16] was 28000 M⁻¹ s⁻¹.
